From the Immune Epitope Database (IEDB) come the findings set out here.

The target in one experiment is HLA-B*15:42. As to the kind of experiment: IEDB peptide-MHC binding, purified MHC/competitive/fluorescence; filed as Kd, often an IC50 or EC50 that approximates it; ≥ and ≤ were set here for values at or beyond the usual limits of such assays.
The next experiment has as its target HLA-C*14:02. Described as above. To be noted: source organism: Yersinia pestis CO92.
The target of a further experiment is HLA-B*45:06. The description is as above.
Another experiment deals with HLA-A*32:07. The description is as above.
The next experiment deals with HLA-B*27:20. The description is as above.
Experiment [1] concerns the target HLA-A*02:01. The description is as above.
In a further experiment the target is HLA-B*51:01. The experiment is described as above. To be noted: source organism: Yersinia pestis CO92.
In a further experiment the target is HLA-B*83:01. The experiment is described as above.
For another experiment, the target named is HLA-C*07:02. As to the kind of experiment: IEDB peptide-MHC binding, purified MHC/direct/fluorescence; filed as Kd, often an IC50 or EC50 that approximates it; ≥ and ≤ were set here for values at or beyond the usual limits of such assays.
In the next experiment the target is HLA-C*06:02. The description is as above. To be noted: source organism: Yersinia pestis CO92.
The next experiment concerns the target HLA-C*05:01. The experiment is described as above. To be noted: source organism: Yersinia pestis CO92.
In the next experiment the target is HLA-C*15:02. Described as above. To be noted: source organism: Yersinia pestis CO92.
The target in experiment [2] is HLA-A*68:02. As to the kind of experiment: IEDB peptide-MHC binding, purified MHC/competitive/fluorescence; filed as Kd, often an IC50 or EC50 that approximates it; ≥ and ≤ were set here for values at or beyond the usual limits of such assays. As to conditions: source organism: Bacillus anthracis str. A0488.
Another experiment has as its target HLA-A*31:01. The description is as above. To be noted: source organism: Bacillus anthracis str. A0488.
A further experiment concerns the target HLA-A*30:01. Described as above.
The target of another experiment is HLA-A*11:01. The description is as above. To be noted: source organism: Bacillus anthracis str. A0488.
The target of experiment [3] is HLA-B*27:05. As to the kind of experiment: IEDB peptide-MHC binding, purified MHC/direct/fluorescence; filed as Kd, often an IC50 or EC50 that approximates it; ≥ and ≤ were set here for values at or beyond the usual limits of such assays. To be noted: source organism: Bacillus anthracis.
A further experiment concerns the target HLA-A*26:03. The experiment is described as above.
The target of a further experiment is HLA-B*07:02. The description is as above.
For experiment [4], the target named is HLA-B*48:01. The description is as above. As to conditions: source organism: Bacillus anthracis.
The target of another experiment is HLA-B*08:03. The experiment is described as above.
The target in a further experiment is HLA-B*57:01. Described as above.
The target in a further experiment is HLA-B*15:17. The experiment is described as above.
The next experiment deals with HLA-A*69:01. The description is as above.
Another experiment addresses HLA-A*26:02. Described as above. To be noted: source organism: Bacillus cereus NVH0597-99.
Experiment [5] deals with HLA-A*01:01. Described as above. As to conditions: source organism: Bacillus anthracis.
Another experiment addresses HLA-B*40:01. Described as above.
In the next experiment the target is HLA-B*58:01. Described as above.
The target of another experiment is HLA-B*08:02. The description is as above. To be noted: source organism: Bacillus cereus NVH0597-99.
Experiment [6] addresses HLA-B*27:05. As to the kind of experiment: IEDB peptide-MHC binding, purified MHC/competitive/fluorescence; filed as Kd, often an IC50 or EC50 that approximates it; ≥ and ≤ were set here for values at or beyond the usual limits of such assays. To be noted: source organism: Vaccinia virus Copenhagen.
Experiment [7] deals with HLA-B*48:01. The description is as above. To be noted: source organism: Vaccinia virus Copenhagen.
The target in a further experiment is HLA-B*18:01. The description is as above. To be noted: source organism: Vaccinia virus Copenhagen.
For experiment [8], the target named is HLA-A*01:01. The experiment is described as above. To be noted: source organism: Vaccinia virus Copenhagen.
Experiment [9] addresses HLA-A*68:02. As to the kind of experiment: IEDB peptide-MHC binding, purified MHC/direct/fluorescence; filed as Kd, often an IC50 or EC50 that approximates it; ≥ and ≤ were set here for values at or beyond the usual limits of such assays. To be noted: source organism: Cowpox virus.
A further experiment deals with HLA-B*38:01. The description is as above. As to conditions: source organism: Variola virus.
For a further experiment, the target named is HLA-B*39:01. Described as above. To be noted: source organism: Cowpox virus.
In the next experiment the target is HLA-B*15:01. The experiment is described as above. To be noted: source organism: Cowpox virus.
The target in a further experiment is HLA-B*46:01. Described as above. As to conditions: source organism: Cowpox virus.
For experiment [10], the target named is HLA-A*02:01. The experiment is described as above. To be noted: source organism: Cowpox virus.
For the next experiment, the target named is HLA-B*15:09. The experiment is described as above. As to conditions: source organism: Variola virus.
Setting [11] is: source organism: Yersinia pestis CO92.
Setting [12] is: source organism: Mycobacterium tuberculosis C.
Where [13] appears, read: source organism: Bacillus anthracis str. A0488.
The mark [14] stands for this setting: source organism: Bacillus cereus NVH0597-99.
The mark [15] stands for this setting: source organism: Bacillus anthracis.

Bounds are passed on as bounds.

Broadly, the Kd is the free concentration of one partner at which half of the binding sites on the other are occupied at equilibrium, for simple one-to-one binding. The low end stands for a tighter complex, the high end for a looser complex. As for YQLEMYHPI, the dissociation constant (Kd) amounted to 15.2 µM in the experiment with HLA-B*15:42 (setting [11]); 70.9 nM with HLA-C*14:02; 3.21 µM with HLA-B*45:06 (setting [11]); 1.3 nM with HLA-A*32:07 (setting [11]); 0.8 nM with HLA-B*27:20 (setting [11]); 0.2 nM with HLA-A*02:01 [1] (setting [11]). For the same sequence, the Kd with HLA-B*51:01 is ≥ 20 µM; with HLA-B*83:01 (setting [11]), ≥ 5 µM; with HLA-C*07:02 (setting [11]), 3750 nM; with HLA-C*06:02, ≥ 20 µM; with HLA-C*05:01, ≥ 20 µM; with HLA-C*15:02, ≥ 20 µM.

On to RARRHLAAL, for which the Kd in the experiment with HLA-B*15:42 (setting [12]) is ≥ 5 µM; with HLA-B*45:06 (setting [12]) it was ≥ 5 µM; with HLA-A*32:07 (setting [12]) it was 114 nM; with HLA-B*27:20 (setting [12]) it was 7.4 nM; with HLA-B*83:01 (setting [12]) it was 5 µM; with HLA-C*07:02 (setting [12]), 1340 nM.

With REFEAQNVP, the Kd with HLA-A*68:02 [2] was 2190 nM; with HLA-A*31:01, ≥ 20 µM; with HLA-A*30:01 (setting [13]), 521 nM; with HLA-A*11:01, 497 nM; in the experiment with HLA-A*02:01 [1] (setting [13]), 145 nM; with HLA-B*27:05 [3], ≥ 20 µM. The Kd with HLA-A*26:03 (setting [14]), with HLA-B*07:02 (setting [15]), with HLA-B*48:01 [4], with HLA-B*08:03 (setting [14]), in the experiment with HLA-B*57:01 (setting [15]) and in the experiment with HLA-B*15:17 (setting [15]) was ≥ 20 µM each time. Moreover, the Kd in the experiment with HLA-A*69:01 (setting [15]) is ≥ 20 µM; with HLA-A*26:02, ≥ 20 µM; with HLA-A*01:01 [5], ≥ 20 µM; in the experiment with HLA-B*40:01 (setting [15]) it was 294 nM; with HLA-B*58:01 (setting [15]), ≥ 20 µM; with HLA-B*08:02 it was ≥ 20 µM.

Consider RHDITGFIL, for which the Kd in the experiment with HLA-B*27:05 [6] was ≥ 20 µM; in the experiment with HLA-A*30:01 (source organism: Vaccinia virus Copenhagen), ≥ 20000 nM; with HLA-B*48:01 [7] it was 298 nM; with HLA-B*18:01, ≥ 20 µM; with HLA-A*01:01 [8] it was ≥ 20 µM; with HLA-A*68:02 [9] it was ≥ 20 µM. Also, the Kd with HLA-A*26:03 (source organism: Variola virus) was ≥ 20 µM; with HLA-B*07:02 (source organism: Cowpox virus) it was ≥ 20 µM; with HLA-B*38:01, 33 nM; with HLA-B*39:01, 23.5 nM; in the experiment with HLA-B*15:01, ≥ 20 µM; in the experiment with HLA-B*08:03 (source organism: Variola virus) it was ≥ 20 µM. Moreover, the dissociation constant Kd was ≥ 20 µM in the experiment with HLA-B*46:01; ≥ 20 µM with HLA-B*57:01 (source organism: Cowpox virus); ≥ 20 µM with HLA-B*15:17 (source organism: Cowpox virus); ≥ 20 µM with HLA-A*69:01 (source organism: Cowpox virus); ≥ 20 µM with HLA-A*02:01 [10]; 2780 nM with HLA-B*15:09. The Kd in the experiment with HLA-B*40:01 (source organism: Cowpox virus) was 513 nM; with HLA-B*58:01 (source organism: Cowpox virus), ≥ 20 µM.
